Source: patent US20130101549A1 (Biogen, published 2013)

Columns and labels:
human HVEM-Ig [1] = target: T1, human HVEM-Ig (human, UniProt Q92956 39-202); test: ELISA on coated HVEM-Ig
T1 construct: Expressed and purified in house; also called HVEM-Fc; Herpes virus entry mediator-Ig
T1 sequence (looked up): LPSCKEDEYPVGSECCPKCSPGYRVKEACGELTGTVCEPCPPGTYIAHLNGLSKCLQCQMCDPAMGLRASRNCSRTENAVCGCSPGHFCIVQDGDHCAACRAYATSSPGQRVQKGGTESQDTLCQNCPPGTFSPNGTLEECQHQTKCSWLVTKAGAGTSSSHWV
Procedure: (§1) Human and murine ErbB2-Fc were obtained from R&D Systems. Wells of 96-well plates were coated with 2 ug/ml or 0.2 ug/ml of human or murine HER2-Fc by incubation overnight at 4-8° C. with either of these six proteins (80 ul/well of a 0.2 or 2 ug/ml solution in PBS). Wells were emptied, filled completely with a solution of PBS with 1% BSA (blocking buffer) and incubated at room temperature for 1 hour. Wells were emptied, washed twice PBS containing 0.05% Tween 20 (PBST) and filled with the samples (80 ul/well of 3× dilution series of the standard and supernatants in blocking buffer) prepared in another 96-well plate. After a 2-hour incubation at room temperature, the wells were emptied, washed three times with PBST and filled with a solution of HRP-conjugated goat pAbs anti-human kappa chain (80 ul/well of a 2000-fold dilution in blocking buffer). After 1-hour incubation, the wells were emptied and filled with a solution of HRP substrate prepared freshly. The color was left to develop for 3 minutes and was stopped by addition of an equal volume of 1N H₂SO₄. Absorbance was measured at 450 nm using a Plate Reader (SpectraMax, Molecular Devices). The data was processed and graphs were created using SoftMax Pro software.
(§2) Human and murine HVEM-Ig were expressed and purified in house.

human HVEM-Ig [2] = target: T1, human HVEM-Ig; test: ELISA, huHVEM-Ig coated at 2 ug/ml, HRP goat anti-human kappa; the number is C of the printed 4-P fit (A 0.064, B 0.959, D 1.517, R^2 0.999); Fab-Light is BIIB71F10-132 by paragraph 503
Procedure: as §1, §2

B1: 71F10 Fab-hLIGHT fusion with the (G4S)4 linker (BIIB71F10-132) (other)
heavy: EVQLLESGGGLVQPGGSLRLSCAASGFTFSSYGMVWVRQAPGKGLEWVSSISSSGGLTWYADSVKGRFTISRDNSKNTLYLQMNSLRAEDTAVYYCASPPGIAVARDYWGQGTLVTVSSASTKGPSVFPLAPSSKSTSGGTAALGCLVKDYFPEPVTVSWNSGALTSGVHTFPAVLQSSGLYSLSSVVTVPSSSLGTQTYICNVNHKPSNTKVDKKVEPKSCDKGGGGSGGGGSGGGGSGGGGSNPAAHLTGANSSLTGSGGPLLWETQLGLAFLRGLSYHDGALVVTKAGYYYIYSKVQLGGVGCPLGLASTITHGLYKRTPRYPEELELLVSQQSPCGRATSSSRVWWDSSFLGGVVHLEAGEEVVVRVLDERLVRLRDGTRSYFGAFMV
light: DIQMTQSPSSLSASVGDRVTITCRASQGISNYLAWYQQKPGKVPKLLIYAASTLQSGVPSRFSGSGSGTDFTLTISSLQPEDVATYYCQKYNSALLTFGGGTKVEIKRTVAAPSVFIFPPSDEQLKSGTASVVCLLNNFYPREAKVQWKVDNALQSGNSQESVTEQDSKDSTYSLSSTLTLSKADYEKHKVYACEVTHQGLSSPVTKSFNRGEC
notes: Trimer of Fab-LIGHT units; also called 71F10 Fab-(G4S)4-LIGHT
In the case of B1, the EC50 (human HVEM-Ig [1]) is reported as 10 pM and the EC50 (human HVEM-Ig [2]) is reported as 2.45 ng/mL.
